Measurements: US9200265B2, “Anti-cocaine compositions and treatment” (priority 2006, dated 2015)
Values joined by “and” are separate entries in the source; they are usually repeats but may differ in a detail not shown here. Equal values may be shown once. Read-outs that look alike come from different tables or passages of the source.

Experiments:
[1] = target: T1, CocE (Rhodococcus sp., UniProt Q9L9D7); experiment: Stabilization against 37° C.-induced formation of high molecular weight CocE aggregates (gel); type: physicochemical, Rhodococcus sp. MB 1; conditions: for 37° C.-induced formation of high molecular weight CocE aggregates: 0.1 mg/ml enzyme, mM range
T1 construct: generating a full-length CocE gene encoding the T172R mutation; His6 (C); made in house; host or cells: E. coli (pET-22b(+))
Description: Plasmids containing the mutations were transformed into E. coli BL21 cells and IPTG-induced enzyme was purified on Ni-Agarose. Expressed proteins were then tested for enzymatic activity and for thermostability at 37° C. Enzyme activity was measured using the spectrophotometric assay as described in Example 1. Thermostability was also tested via the spectrophotometric assay by pre-incubation of both wild-type and mutants at 37° C. for various times. Additionally, the nature of the thermo-instability of both the wild-type and T172R mutant was analyzed by polyacrylamide gel electrophoresis under denaturing and non-denaturing conditions. Briefly, mutant and wild-type enzyme at 0.1 mg/ml were incubated at 37° C. for various time-points, cooled to 4° C., mixed with SDS-loading dye containing-mercaptoethanol and run on 10% SDS-PAGE gels (denaturing conditions) or run on native 10% polyacrylamide gels (non-denaturing conditions) at 4° C. Gels were fixed with 10% methanol, 7% acetic acid for 30 minutes, and then stained with Sypro-Ruby protein gel stain (Molecular Probes, Invitrogen) for 3 hours. Protein staining was visualized under UV-light using an AlphaImager™ 3400 (Alpha Innotech). Finally, the exact melting temperature of both the wild-type and T172R mutant were determined by circular dichroism using a JASCO-810 spectropolarimeter driven by a JASCO V500/FP-750 analysis program for Windows. The CD spectra were measured in millidegrees and normalized against PBS buffer.
Cocaine esterase (CocE) cleaves cocaine to produce Benzoic acid and Ecgonine methyl ester. Briefly, alternative substrates and inhibitors of cocaine, as well as compounds able to thermostabilize the enzyme, were investigated generally by substituting amide and thiol analogues at the reactive ester bond, or removing the bond (for inhibitors), substituting benzoyl analogues in place of the benzoic acid leaving group, and/or removing or altering the methyl-ester group on the ecgonine portion of the molecule. As discussed below, it was determined that some substrates, products, and inhibitors stabilized thermal denaturation of wild type CocE, as well as prevented thermally-induced aggregation in gel electrophoresis.
Cocaine is the natural substrate of Cocaine esterase (CocE). Cocaine cleavage was monitored by a drop in absorbance at 240 nm. Cocaine (mM range) prevented 37° C.-induced formation of high molecular weight CocE aggregates (0.1 mg/ml enzyme concentrations) (see, e.g., FIG. 33). Cocaine (uM quantities) stabilized 37° C.-induced activity loss (see, e.g., FIG. 34), although the mechanism of this stabilization is complicated due to substrate inhibition at higher concentrations.

[2] = target: T1, CocE; experiment: Inhibition of CocE (cleavage of 4-nitrophenyl acetate); type: biochemical, Rhodococcus sp. MB 1
Description: Benzoic acid prevented 37° C.-induced formation of high molecular weight CocE aggregates (0.1 mg/ml enzyme concentrations) (see, e.g., FIG. 35). Benzoic acid (uM quantities) stabilized 37° C.-induced activity loss (see, e.g., FIG. 36), although the mechanism of this stabilization is complicated due to substrate inhibition at higher concentrations.
CocE catalyzes the cleavage of 4-nitrophenyl acetate (4NPA) to 4-nitrophenol (4NP) and acetate. The cleavage reaction was monitored by observation of product formation at 400 nm. Both 4NP and 4NPA (mM range) prevented 37° C.-induced formation of high molecular weight CocE aggregates (0.1 mg/ml enzyme concentrations).

[3] = test system: WIN 35065-2 induced toxicity; experiment: WIN 35065-2 induced lethality in rats; conditions: i.p., rats
[4] = Low-UV CD spectra melt with CCA deconvolution; type: physicochemical; conditions: for #3 formation: accumulation of the fully melted protein; for #2 formation: formation of the intermediate state; for #1 melt: initial spectra melts, 0.2 mg/ml; for #2 melt: melt of the intermediate state
Description: Low-UV CD spectra data were obtained using an Aviv Spectropolarimeter Mode 400, with the help of Norma Greenfield, UMDNJ, using a 5-cell holder and 0.2 mg/ml protein concentrations. Raw data values obtained were blanked on control PBS, smoothed, and deconvoluted using the CCA algorithm as described by A. Perczel, K. Park, and G. D. Fasman, [Analysis of the circular dichroism spectrum of proteins using the convex constraint algorithm: a practical guide. Analytical Biochemistry 203, 83-93 (1992).] This algorithm finds the minimum number of curves needed to reconstruct a data set, and expresses the percentage each curve contributes to the data set as a function of temperature.
Below is presented a low UV CCA denconvolution analysis of CocE WT and 4 mutants, obtained in a single CD spectra melt using a 5-cell holder. The experiment was performed over the period of 8 hours, from 0-80° C.
Temperature dependent melting was observed between the wavelengths tested (200-250 nm), and the smoothed spectra for each mutant are shown in FIG. 29. […] Dose response analysis was used to approximate the temperature at which the initial spectra melts (1), the formation and melt of the intermediate state (2), and the accumulation of the fully melted protein (3).

[5] = Cocaine spectrophotometric assay (240 nm), Michaelis-Menten kinetics
[6] = against (-) cocaine; cited from earlier work

Molecule	#3 formation [4]	#2 formation [4] [°C]	#1 melt [4]	#2 melt [4]	other results
O=[N+]([O-])c1ccc(O)cc1 [4NP, 4-nitrophenol]	–	–	–	–	37° C.-induced formation of high molecular weight CocE aggregates [1]: prevented
CC(=O)Oc1ccc([N+](=O)[O-])cc1 [4NPA, 4-nitrophenyl acetate]	–	–	–	–	37° C.-induced formation of high molecular weight CocE aggregates [1]: prevented
OB(O)c1ccccc1 [Phenylboronic acid]	–	–	–	–	Ki [2]: 250 nM; EC50 [1]: 200 nM
COC(=O)[C@H]1[C@@H](c2ccccc2)C[C@@H]2CC[C@H]1N2C [WIN-35065-2, reference compound]	–	–	–	–	LD100 [3]: 560 mg/kg
T172R/G173Q (protein, UniProt Q9L9D7 1-574, looked up, variant T172R G173Q) Cocaine esterase: MVDGNYSVASNVMVPMRDGVRLAVDLYRPDADGPVPVLLVRNPYDKFDVFAWSTQSTNWLEFVRDGYAVVIQDTRGLFASEGEFVPHVDDEADAEDTLSWILEQAWCDGNVGMFGVSYLGVTQWQAAVSGVGGLKAIAPSMASADLYRAPWYGPGGALSVEALLGWSALIGRQLITSRSDARPEDAADFVQLAAILNDVAGAASVTPLAEQPLLGRLIPWVIDQVVDHPDNDESWQSISLFERLGGLATPALITAGWYDGFVGESLRTFVAVKDNADARLVVGPWSHSNLTGRNADRKFGIAATYPIQEATTMHKAFFDRHLRGETDALAGVPKVRLFVMGIDEWRDETDWPLPDTAYTPFYLGGSGAANTSTGGGTLSTSISGTESADTYLYDPADPVPSLGGTLLFHNGDNGPADQRPIHDRDDVLCYSTEVLTDPVEVTGTVSARLFVSSSAVDTDFTAKLVDVFPDGRAIALCDGIVRMRYRETLVNPTLIEAGEIYEVAIDMLATSNVFLPGHRIMVQVSSSNFPKYDRNSNTGGVIAREQLEEMCTAVNRIHRGPEHPSHIVLPIIKR	56 °C and 56.61 °C	45.61	40 °C and 40.62 °C	46 °C and 46.17 °C	–
T172R/A193D: mutant CocE polypeptide (protein, UniProt Q9L9D7 1-574, looked up, variant T172R A193D) Cocaine esterase: MVDGNYSVASNVMVPMRDGVRLAVDLYRPDADGPVPVLLVRNPYDKFDVFAWSTQSTNWLEFVRDGYAVVIQDTRGLFASEGEFVPHVDDEADAEDTLSWILEQAWCDGNVGMFGVSYLGVTQWQAAVSGVGGLKAIAPSMASADLYRAPWYGPGGALSVEALLGWSALIGRGLITSRSDARPEDAADFVQLDAILNDVAGAASVTPLAEQPLLGRLIPWVIDQVVDHPDNDESWQSISLFERLGGLATPALITAGWYDGFVGESLRTFVAVKDNADARLVVGPWSHSNLTGRNADRKFGIAATYPIQEATTMHKAFFDRHLRGETDALAGVPKVRLFVMGIDEWRDETDWPLPDTAYTPFYLGGSGAANTSTGGGTLSTSISGTESADTYLYDPADPVPSLGGTLLFHNGDNGPADQRPIHDRDDVLCYSTEVLTDPVEVTGTVSARLFVSSSAVDTDFTAKLVDVFPDGRAIALCDGIVRMRYRETLVNPTLIEAGEIYEVAIDMLATSNVFLPGHRIMVQVSSSNFPKYDRNSNTGGVIAREQLEEMCTAVNRIHRGPEHPSHIVLPIIKR	58.72 °C	46.47	38.11 °C	47.68 °C	–
T172R-F189K (protein, UniProt Q9L9D7 1-574, looked up, variant T172R F189K) Cocaine esterase: MVDGNYSVASNVMVPMRDGVRLAVDLYRPDADGPVPVLLVRNPYDKFDVFAWSTQSTNWLEFVRDGYAVVIQDTRGLFASEGEFVPHVDDEADAEDTLSWILEQAWCDGNVGMFGVSYLGVTQWQAAVSGVGGLKAIAPSMASADLYRAPWYGPGGALSVEALLGWSALIGRGLITSRSDARPEDAADKVQLAAILNDVAGAASVTPLAEQPLLGRLIPWVIDQVVDHPDNDESWQSISLFERLGGLATPALITAGWYDGFVGESLRTFVAVKDNADARLVVGPWSHSNLTGRNADRKFGIAATYPIQEATTMHKAFFDRHLRGETDALAGVPKVRLFVMGIDEWRDETDWPLPDTAYTPFYLGGSGAANTSTGGGTLSTSISGTESADTYLYDPADPVPSLGGTLLFHNGDNGPADQRPIHDRDDVLCYSTEVLTDPVEVTGTVSARLFVSSSAVDTDFTAKLVDVFPDGRAIALCDGIVRMRYRETLVNPTLIEAGEIYEVAIDMLATSNVFLPGHRIMVQVSSSNFPKYDRNSNTGGVIAREQLEEMCTAVNRIHRGPEHPSHIVLPIIKR	57.23 °C	46.81	38.8 °C	48.42 °C	–
S159A (protein, Mutant CocE polypeptide) MVDGNYSVASNVMVPMRDGVRLAVDLYRPDADGPVPVLLVRNPYDKFDVFAWSTQSTNWLEFVRDGYAVVIQDTRGLFASEGEFVPHVDDEADAEDTLSWILEQAWCDGNVGMFGVSYLGVTQWQAAVSGVGGLKAIAPSMASADLYRAPWYGPGGALAVEALLGWSALIGTGLITSRSDARPEDAADFVQLAAILNDVAGAASVTPLAEQPLLGRLIPWVIDQVVDHPDNDESWQSISLFERLGGLATPALITAGWYDGFVGESLRTFVAVKDNADARLVVGPWSHSNLTGRNADRKFGIAATYPIQEATTMHKAFFDRHLRGETDALAGVPKVRLFVMGIDEWRDETDWPLPDTAYTPFYLGGSGAANTSTGGGTLSTSISGTESADTYLYDPADPVPSLGGTLLFHNGDNGPADQRPIHDRDDVLCYSTEVLTDPVEVTGTVSARLFVSSSAVDTDFTAKLVDVFPDGRAIALCDGIVRMRYRETLVNPTLIEAGEIYEVAIDMLATSNVFLPGHRIMVQVSSSNFPKYDRNSNTGGVIAREQLEEMCTAVNRIHRGPEHPSHIVLPIIKR	–	–	–	–	Km ([5]; 40 min @ 37° C.): 15.7 µM; Km ([5]; no preincubation): 43.6 µM
Ala328W/Y332A: cocaine hydrolyzing enzyme of Sun et al., 2002a (genetically engineered BChE) (protein, UniProt P06276 29-602, looked up, variant A328W Y332A) Cholinesterase: EDDIIIATKNGKVRGMNLTVFGGTVTAFLGIPYAQPPLGRLRFKKPQSLTKWSDIWNATKYANSCCQNIDQSFPGFHGSEMWNPNTDLSEDCLYLNVWIPAPKPKNATVLIWIYGGGFQTGTSSLHVYDGKFLARVERVIVVSMNYRVGALGFLALPGNPEAPGNMGLFDQQLALQWVQKNIAAFGGNPKSVTLFGESAGAASVSLHLLSPGSHSLFTRAILQSGSFNAPWAVTSLYEARNRTLNLAKLTGCSRENETEIIKCLRNKDPQEILLNEAFVVPYGTPLSVNFGPTVDGDFLTDMPDILLELGQFKKTQILVGVNKDEGTWFLVAGAPGFSKDNNSIITRKEFQEGLKIFFPGVSEFGKESILFHYTDWVDDQRPENYREALGDVVGDYNFICPALEFTKKFSEWGNNAFFYYFEHRSSKLPWPEWMGVMHGYEIEFVFGLPLERRDNYTKAEEILSRSIVKRWANFAKYGNPNETQNNSTSWPVFKSTEQKYLTLNTESTRIMTKLRAQQCRFWTSFFPKVLEMTGNIDEAEWEWKAGFHRWNNYMMDWKNQFNDYTSKKESCVGL	–	–	–	–	Kcat [6]: 2.57 s⁻¹; Km [6]: 18 µM
